Read-outs that look alike come from different tables or passages of the source. * marks the point of attachment. Biotin = O=C1N[C@H]2[C@H](CS[C@H]2CCCCC(=O)*)N1
Experiments:
[1] = biological target: T1, p97, wild-type, full-length (recombinant) (human, UniProt P55072 1-806); assay: pull-down
[2] = biological target: T1, p97, wild-type, full-length …; assay: pull-down; remark: listed apart in the source

T1 sequence (P55072 whole entry): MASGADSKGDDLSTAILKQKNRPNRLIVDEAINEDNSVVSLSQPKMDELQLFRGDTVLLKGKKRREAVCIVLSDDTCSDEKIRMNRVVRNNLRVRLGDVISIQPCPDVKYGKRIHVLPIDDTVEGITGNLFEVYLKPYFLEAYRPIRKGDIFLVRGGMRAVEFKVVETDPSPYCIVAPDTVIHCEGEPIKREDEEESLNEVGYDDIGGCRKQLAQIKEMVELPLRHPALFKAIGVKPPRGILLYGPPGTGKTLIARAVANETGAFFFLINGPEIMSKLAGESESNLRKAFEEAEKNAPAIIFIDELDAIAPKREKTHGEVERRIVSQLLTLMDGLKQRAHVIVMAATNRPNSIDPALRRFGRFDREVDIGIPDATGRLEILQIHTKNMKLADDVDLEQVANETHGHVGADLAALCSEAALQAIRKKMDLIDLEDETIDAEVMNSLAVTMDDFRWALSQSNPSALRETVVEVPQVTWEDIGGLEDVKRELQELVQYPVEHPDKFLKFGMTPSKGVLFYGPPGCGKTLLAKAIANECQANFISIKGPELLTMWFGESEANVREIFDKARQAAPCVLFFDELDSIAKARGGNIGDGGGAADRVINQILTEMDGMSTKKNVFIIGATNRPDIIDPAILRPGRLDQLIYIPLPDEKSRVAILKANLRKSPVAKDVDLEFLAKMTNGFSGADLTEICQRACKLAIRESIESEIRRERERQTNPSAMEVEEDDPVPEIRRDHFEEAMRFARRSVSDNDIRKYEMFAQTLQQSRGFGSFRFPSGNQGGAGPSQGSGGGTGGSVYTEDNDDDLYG

| Binder | binding result [1] | binding result [2] |
| --- | --- | --- |
| GST-FAM104A isoform 1 (natural protein) not shown | binds |  |
| Biotin-CQGLYFHINQTLREAHFHSLQHRG-OH (SMILES CC[C@H](C)[C@H](NC(=O)[C@H](Cc1c[nH]cn1)NC(=O)[C@H](Cc1ccccc1)NC(=O)[C@H](Cc1ccc(O)cc1)NC(=O)[C@H](CC(C)C)NC(=O)CNC(=O)[C@H](CCC(N)=O)NC(=O)[C@H](CS)NC(=O)CCCC[C@@H]1SC[C@@H]2NC(=O)N[C@@H]21)C(=O)N[C@@H](CC(N)=O)C(=O)N[C@@H](CCC(N)=O)C(=O)N[C@H](C(=O)N[C@@H](CC(C)C)C(=O)N[C@@H](CCCNC(=N)N)C(=O)N[C@@H](CCC(=O)O)C(=O)N[C@@H](C)C(=O)N[C@@H](Cc1c[nH]cn1)C(=O)N[C@@H](Cc1ccccc1)C(=O)N[C@@H](Cc1c[nH]cn1)C(=O)N[C@@H](CO)C(=O)N[C@@H](CC(C)C)C(=O)N[C@@H](CCC(N)=O)C(=O)N[C@@H](Cc1c[nH]cn1)C(=O)N[C@@H](CCCNC(=N)N)C(=O)NCC(=O)O)[C@@H](C)O) |  | binds |
| GST-FAM104A isoform 2 (natural protein) not shown | binds |  |

Source: paper doi:10.1101/2023.07.25.550451 (bioRxiv, 2023)
